{"source": "paper PMC5120207", "about": "“An archaeal ADP-dependent serine kinase involved in cysteine biosynthesis and serine metabolism” (Nature Communications, 2016)", "key": {"purified protein": {"substrate": "N[C@@H](CO)C(=O)O", "experiment": "purified protein", "details": "ADP co-substrate, MgCl2, 50 mM Tris-HCl pH 7.5, 85 °C (standard assay; 20 mM each ADP and MgCl2)"}, "[1]": {"substrate": "Nc1ncnc2c1ncn2[C@@H]1O[C@H](COP(=O)(O)OP(=O)(O)O)[C@@H](O)[C@H]1O", "experiment": "HPLC of AMP formed from ADP", "assay_type": "biochemical, Thermococcus kodakarensis", "details": "L-serine co-substrate (50 mM in standard assay), MgCl2, 50 mM Tris-HCl pH 7.5, 85 °C"}}}
{"protein": "TK0378 protein; ADP-dependent Ser kinase (SerK; Tk-SerK) (Thermococcus kodakarensis KOD1) (protein, full coding region in pET21a(+) (NdeI/EcoRI), no tag mentioned; E. coli BL21-CodonPlus(DE3)-RIL; heat treatment, Resource Q, Superdex 200) MGVEKVPKYDIPTKKVDYVFIELDKMKPHEQLVQKELEAFIESVTGSGIFWKPMLLAKVPGEDMYLIVDGHHRWAGLQKLGAKRAPSVILDYFSDDVKVYTWYPAFKGDLNEVVERLKKEGLEVIEDPEAEEKAERGEIAFALVGEKSFAIPGGLEEQKKVSKVLDEMSVEGKIELIYYGLKEDAREDMAKGEIDYVFIRKAPTKEEVMELVKRGEVYSPKTTRHVLPFNPDKIDVKLEELF", "values": [{"measurement": "Km", "setting": "purified protein", "value": "5.1 ± 0.5", "unit": "mM"}, {"measurement": "kcat", "setting": "purified protein", "value": "218 ± 5", "unit": "s⁻¹"}, {"measurement": "Km", "setting": "[1]", "value": "2.4 ± 0.5", "unit": "mM"}, {"measurement": "kcat", "setting": "[1]", "value": "204 ± 12", "unit": "s⁻¹"}]}
